Source: publication PMC8389195, “Demyristoylation of the Cytoplasmic Redox Protein Trx-h2 Is Critical for Inducing a Rapid Cold Stress Response in Plants”

Biological target: MBP-CBF1 (Arabidopsis thaliana, UniProt P93835 1-213)
Experiment: EMSA; NADPH, Trx reductase, Trx-h2 (reduced CBF1); EMSA kit (Thermo Fisher), poly(dI-dC) binding buffer, NADPH/Trx reductase/Trx-h2 system, 6% polyacrylamide gel; proteins dialyzed in 20 mM HEPES-NaOH pH 8.0; salt and temperature not stated
Settings: protein: recombinant; tags: MBP (N-terminal, pMAL vector); blunt

MBP-CBF1, sequence (P93835 whole entry): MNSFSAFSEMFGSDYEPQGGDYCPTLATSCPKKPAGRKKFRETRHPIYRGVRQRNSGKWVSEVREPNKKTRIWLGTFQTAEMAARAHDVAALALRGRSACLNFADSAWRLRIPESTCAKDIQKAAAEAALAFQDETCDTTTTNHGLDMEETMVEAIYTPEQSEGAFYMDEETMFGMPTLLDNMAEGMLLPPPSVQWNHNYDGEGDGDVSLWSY

B1: COR15a promoter CRT/DRE probe (dsDNA)
DNA 1: ATTTCATGGCCGACCTGCTTTTT
DNA 2: AAAAAGCAGGTCGGCCATGAAAT
B1: binds.
